The text below walks through data of publication PMC5286356.

The assay deals with bovine heart cytochrome c oxidase (bovine) (UniProt P00396). The assay can be described thus: crystal structure; co-crystallised by the batch-wise method at 277 K; 15 mM sodium phosphate pH 8.0, DM and FOM, Cyt.c/CcO molar ratio 1.2, ~5% PEG 4000; ferri-Cyt.c and oxidized CcO; crystals soaked with 50 uM Cyt.c; refined at 2.0 A.

A word on the stoichiometry N: it is a count of units in the complex or per binding partner. As to “bovine heart cytochrome c oxidase (from UniProt P00396 1-514; P68530 1-227; P00429 1-86) (complex)”, the stoichiometry N amounted to 2.
